The values below come from patent US10736941B2, “Cell membrane-permeating peptide” (NATIONAL UNIVERSITY CORPORATION KUMAMOTO UNIVERSITY, priority 2015, dated 2020).

Data set [1] has as its system Caco-2 cells. The experiment in a line: Cell toxicity to Caco-2 cells (Cell Counting kit 8). In kind it is cell-based, human. To be noted: Caco-2 cells treated for 24 hours, 10 μM. As to the method:
For cell toxicity, 100 μL of 0-10 μM DNP peptide was added to Caco-2 cells cultured in a 96-well plate, and the cell survival rates after 1, 6 and 24 hours were measured using Cell Counting kit 8 (DOJINDO Laboratories).
(§1) Caco-2 cells were treated for 24 hours using the cyclic peptide DNP having highest permeability at a concentration of 10 μM, but weakening of cell toxicity and tight junction was not observed.

Data set [2] has as its system Caco-2 cells. The experiment in a line: Influence on tight junction of Caco-2 cells (TEER, Millicell ERS-2). In kind it is cell-based, human. Particulars: Caco-2 cells treated for 24 hours, 10 μM. How it is done: For the influence on tight junction, Caco-2 cells were cultured in Transwell, then, 2 mL of 0-10 μM peptide DNP was added at the apical (AP) side, and 1, 2, 3, 6, 12 and 24 hours after addition, the electric resistance value (TEER) was measured using Millicell ERS-2.
as §1

Data set [3] has as its system Caco-2 cells. Briefly: Competitive inhibition of DNP-presenting phage permeation through Caco-2 cells by synthetic unlabeled DNP peptide. In kind it is cell-based, human. To be noted: unlabeled DNP 10 μM. How it is done:
The experiment of permeation using Caco-2 cells was conducted according to a report of Ohura et al. (J. Pharm. Sci. Vol 100, No. 9, 2011). Each phage stock was prepared by diluting with an HBSS buffer so as to give a concentration of 5×10^11 pfu/mL. Caco-2 cells placed in Transwell (manufactured by Coring) were cultured, and formation of sufficient tight junction was confirmed, then, Transwell was transferred to a new 6-well plate. To the apical (AP) side of the cell, 2 mL of the phage preparation liquid was added and incubated at 37° C. (this time point t=0 min). When reached each time point, Transwell was transferred to a new 6-well plate. The time point was 1, 3, 5, 10 and 30 min. The sample at the basal (BA) side at each time point was kept on ice. When reached 30 min, Transwell was transferred to a new 6-well plate, and the HBSS buffer at the AP side was aspirated, then, the cells were recovered into a centrifugal tube. The titre at the BA side and the titre in the supernatant at each time point were measured by qPCR. […]
The DNP-presenting phage permeating Caco-2 cells was measured in the presence or in the absence of the unlabeled DNP, in the same manner as in Example 1. […]

Data set [4] deals with mouse small intestine closed loop. Briefly: Promotion of insulin absorption by co-administration of cyclic peptide, mouse small intestine closed loop, blood glucose level. In kind it is in vivo. To be noted: DNPGNET 5 mM co-administered with insulin 10 IU/kg into mouse small intestine loop, versus insulin alone, over 60 minutes. How it is done: The influence on insulin absorption by co-administration of the cyclic peptide of the present invention was studied by measuring the blood glucose level.
We asked GenScript Japan Inc. to synthesize a cyclic peptide shown in FIG. 4B containing a sequence of DNPGNET (SEQ TD No: 5).
A peptide was prepared by using 100 μL of a hot HBSS solution so that the concentration of insulin was 10 IU/kg and the concentration of DNPGNET was 5 mM and incubated at 37° C. for 1 hour, and the resultant was used in the co-administration group. For the insulin single administration group, a sample was prepared by using 100 μL of a hot HBSS solution so that the concentration of insulin was 10 IU/kg and incubated at 37° C. for 1 hour, and the resultant peptide was used. In the same manner as in Example 6, a mouse small intestine closed loop was produced, then, the DNPGNET+insulin solution or the insulin solution prepared previously was administered into the loop. The time of administration was 0 min, and the blood glucose level was measured over a time of 60 minutes by using ACCU-CHEK (registered trademark) Aviva Nano.

Where no end group is shown, it is not given here.

Turning to “DNPGNET (also: cyclic peptide, mode of cyclisation not given here)”, the cell toxicity entry in the data set with Caco-2 cells [1] was “not observed”. For the same substance, the “weakening of tight junction (TEER)” value in the data set with Caco-2 cells [2] is “not observed”. Besides, the “competitive inhibition of DNP-presenting phage permeating Caco-2 cells” value with Caco-2 cells [3] was “competitive inhibition occurs”. Besides, in data set [4], the “insulin absorption (blood glucose level)” value is on record as “absorption of insulin was promoted”.
